Measured values taken from the supplement of paper PMC10065799, “High-throughput profiling of sequence recognition by tyrosine kinases and SH2 domains using bacterial peptide display” (eLife, 2023).

Legend:
Jak2 = Jak2 (UniProt O60674); assay: phosphorylation enrichment, bacterial display (enrichment ratio); higher = better substrate or ligand; peptides without Tyr show the background
EPHB1 = EPHB1 (UniProt P54762); assay: as above
Fes = Fes (UniProt P07332); assay: as above
FGFR3 = FGFR3 (UniProt P22607); assay: as above
EPHB2 = EPHB2 (UniProt P29323); assay: as above
c-Abl (mouse) = assay: as above
FGFR1 = FGFR1 (UniProt P11362); assay: as above
Fyn = Fyn (UniProt P06241); assay: as above
Fer (mouse) = assay: as above
c-Src = assay: as above
Hck = Hck (UniProt P08631); assay: as above
MERTK = MERTK (UniProt Q12866); assay: as above
AncSZ = assay: as above
c-Src SH2 = assay: SH2 binding enrichment of the phosphorylated peptide, bacterial display (enrichment ratio); higher = better substrate or ligand; peptides without Tyr show the background
Grb2 SH2 = Grb2 SH2 (UniProt P62993); assay: as above
SHP2-C SH2 = assay: as above
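Throughout, for SH2 binding enrichment of the phosphorylated peptide, bacterial display: peptide library displayed on the E. coli surface as eCPX fusions, selected cells deep-sequenced, score is each peptide's frequency after selection divided by its frequency in the input.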
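Throughout, for phosphorylation enrichment, bacterial display: 11-residue human phosphosite peptides and single-mutation variants displayed on the E. coli surface, counted by deep sequencing, each peptide's frequency after selection divided by its frequency in the unselected input library; frequency after pTyr selection over input frequency; kinase dosed for 20-30% of maximal phosphorylation in three min.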

Fes, sequence (P07332 whole entry, looked up): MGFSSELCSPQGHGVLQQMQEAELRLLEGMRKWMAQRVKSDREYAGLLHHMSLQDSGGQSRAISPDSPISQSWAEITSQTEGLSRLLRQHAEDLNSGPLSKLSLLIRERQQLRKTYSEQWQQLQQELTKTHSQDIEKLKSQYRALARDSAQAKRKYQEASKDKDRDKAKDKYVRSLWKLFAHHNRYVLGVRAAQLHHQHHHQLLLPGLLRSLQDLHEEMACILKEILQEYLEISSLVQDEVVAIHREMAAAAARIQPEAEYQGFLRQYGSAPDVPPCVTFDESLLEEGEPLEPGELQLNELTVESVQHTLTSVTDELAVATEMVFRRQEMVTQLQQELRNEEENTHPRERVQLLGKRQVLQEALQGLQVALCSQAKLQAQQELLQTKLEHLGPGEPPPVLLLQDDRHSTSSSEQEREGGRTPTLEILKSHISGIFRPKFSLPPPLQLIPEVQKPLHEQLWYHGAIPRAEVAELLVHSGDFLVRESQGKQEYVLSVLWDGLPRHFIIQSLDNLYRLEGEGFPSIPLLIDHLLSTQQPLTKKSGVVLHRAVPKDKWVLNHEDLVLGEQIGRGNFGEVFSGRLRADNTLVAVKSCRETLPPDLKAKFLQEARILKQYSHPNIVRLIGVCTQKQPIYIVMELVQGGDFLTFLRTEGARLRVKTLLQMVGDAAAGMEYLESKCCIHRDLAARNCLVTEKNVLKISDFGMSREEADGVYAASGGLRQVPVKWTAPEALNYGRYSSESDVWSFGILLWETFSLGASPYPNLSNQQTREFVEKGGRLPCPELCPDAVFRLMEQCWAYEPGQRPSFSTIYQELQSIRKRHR
EPHB1, sequence (P54762 whole entry, looked up): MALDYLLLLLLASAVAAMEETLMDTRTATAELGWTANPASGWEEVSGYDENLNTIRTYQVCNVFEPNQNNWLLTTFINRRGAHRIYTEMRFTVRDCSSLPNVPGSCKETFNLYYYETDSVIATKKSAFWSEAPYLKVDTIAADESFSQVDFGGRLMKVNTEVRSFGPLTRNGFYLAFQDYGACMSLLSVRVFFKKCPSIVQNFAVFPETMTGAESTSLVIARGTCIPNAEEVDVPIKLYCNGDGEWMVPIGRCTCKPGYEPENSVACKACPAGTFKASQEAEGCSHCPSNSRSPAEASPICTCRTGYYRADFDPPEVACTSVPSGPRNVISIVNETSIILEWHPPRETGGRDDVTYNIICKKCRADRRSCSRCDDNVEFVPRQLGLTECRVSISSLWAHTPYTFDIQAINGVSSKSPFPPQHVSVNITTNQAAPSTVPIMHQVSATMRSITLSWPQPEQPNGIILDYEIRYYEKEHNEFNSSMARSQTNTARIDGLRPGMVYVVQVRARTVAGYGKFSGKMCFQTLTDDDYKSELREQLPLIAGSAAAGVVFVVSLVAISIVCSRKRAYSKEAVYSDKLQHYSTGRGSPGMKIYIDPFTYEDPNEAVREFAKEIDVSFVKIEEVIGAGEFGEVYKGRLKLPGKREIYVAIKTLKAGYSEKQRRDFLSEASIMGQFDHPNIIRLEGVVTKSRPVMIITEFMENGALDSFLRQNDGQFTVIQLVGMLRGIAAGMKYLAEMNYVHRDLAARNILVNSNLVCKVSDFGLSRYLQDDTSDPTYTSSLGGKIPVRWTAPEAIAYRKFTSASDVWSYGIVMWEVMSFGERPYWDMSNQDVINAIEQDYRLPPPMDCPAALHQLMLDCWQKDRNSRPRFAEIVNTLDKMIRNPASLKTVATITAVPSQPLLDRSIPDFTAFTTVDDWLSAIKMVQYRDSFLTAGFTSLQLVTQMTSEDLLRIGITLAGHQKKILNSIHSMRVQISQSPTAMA
Hck, sequence (P08631 whole entry, looked up): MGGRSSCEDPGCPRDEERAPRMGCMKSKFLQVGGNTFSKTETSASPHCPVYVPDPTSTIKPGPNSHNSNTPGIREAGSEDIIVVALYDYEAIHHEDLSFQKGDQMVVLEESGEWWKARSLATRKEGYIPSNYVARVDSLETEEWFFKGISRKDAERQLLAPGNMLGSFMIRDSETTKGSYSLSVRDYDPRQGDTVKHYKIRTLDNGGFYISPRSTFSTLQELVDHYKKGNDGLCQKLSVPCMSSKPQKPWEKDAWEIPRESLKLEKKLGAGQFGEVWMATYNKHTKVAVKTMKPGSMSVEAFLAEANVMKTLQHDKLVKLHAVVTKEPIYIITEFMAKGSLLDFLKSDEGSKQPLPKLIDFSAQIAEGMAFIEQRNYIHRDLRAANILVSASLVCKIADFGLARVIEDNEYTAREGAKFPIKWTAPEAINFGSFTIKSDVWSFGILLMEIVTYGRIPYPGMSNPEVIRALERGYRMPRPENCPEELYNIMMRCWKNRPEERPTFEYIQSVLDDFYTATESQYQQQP
Fyn, sequence (P06241 whole entry, looked up): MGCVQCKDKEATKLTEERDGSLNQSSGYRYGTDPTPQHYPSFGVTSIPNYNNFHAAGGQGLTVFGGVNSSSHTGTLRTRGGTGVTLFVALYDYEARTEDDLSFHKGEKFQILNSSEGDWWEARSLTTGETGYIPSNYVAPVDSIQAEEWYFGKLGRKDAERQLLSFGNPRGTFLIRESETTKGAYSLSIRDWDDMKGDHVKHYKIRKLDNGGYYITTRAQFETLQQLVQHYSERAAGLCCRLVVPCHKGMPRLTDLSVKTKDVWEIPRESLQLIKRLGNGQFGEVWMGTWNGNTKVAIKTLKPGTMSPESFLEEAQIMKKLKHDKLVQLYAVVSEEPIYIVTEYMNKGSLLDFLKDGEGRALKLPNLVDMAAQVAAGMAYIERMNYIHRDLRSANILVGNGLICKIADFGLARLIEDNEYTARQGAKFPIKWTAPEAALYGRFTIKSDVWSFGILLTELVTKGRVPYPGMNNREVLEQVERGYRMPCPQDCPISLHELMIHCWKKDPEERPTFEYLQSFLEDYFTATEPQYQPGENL
MERTK, sequence (Q12866 whole entry, looked up): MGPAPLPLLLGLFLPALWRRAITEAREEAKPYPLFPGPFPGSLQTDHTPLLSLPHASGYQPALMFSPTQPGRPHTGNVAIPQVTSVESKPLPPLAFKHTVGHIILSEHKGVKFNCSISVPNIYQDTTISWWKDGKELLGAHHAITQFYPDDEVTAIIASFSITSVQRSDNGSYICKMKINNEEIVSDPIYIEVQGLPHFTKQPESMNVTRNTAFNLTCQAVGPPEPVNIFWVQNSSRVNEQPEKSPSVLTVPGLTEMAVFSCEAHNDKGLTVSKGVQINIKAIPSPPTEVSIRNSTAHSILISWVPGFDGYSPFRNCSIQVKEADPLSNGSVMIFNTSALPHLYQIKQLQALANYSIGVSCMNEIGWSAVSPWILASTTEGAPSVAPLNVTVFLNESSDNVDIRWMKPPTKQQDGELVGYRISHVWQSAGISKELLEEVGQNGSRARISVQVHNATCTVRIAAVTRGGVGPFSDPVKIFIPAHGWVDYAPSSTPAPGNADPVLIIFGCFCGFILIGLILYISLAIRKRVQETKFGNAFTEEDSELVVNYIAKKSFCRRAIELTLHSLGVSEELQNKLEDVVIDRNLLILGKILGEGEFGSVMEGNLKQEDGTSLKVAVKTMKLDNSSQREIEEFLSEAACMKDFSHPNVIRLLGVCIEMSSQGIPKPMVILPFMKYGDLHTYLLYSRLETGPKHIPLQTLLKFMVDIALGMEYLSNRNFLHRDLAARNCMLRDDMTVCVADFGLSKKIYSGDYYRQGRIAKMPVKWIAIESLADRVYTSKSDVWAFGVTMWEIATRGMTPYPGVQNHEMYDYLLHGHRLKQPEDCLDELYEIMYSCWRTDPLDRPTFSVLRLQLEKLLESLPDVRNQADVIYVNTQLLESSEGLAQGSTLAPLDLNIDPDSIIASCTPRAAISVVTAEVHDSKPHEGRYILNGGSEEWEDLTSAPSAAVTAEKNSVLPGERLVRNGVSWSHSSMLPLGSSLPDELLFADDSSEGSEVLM
FGFR1, sequence (P11362 whole entry, looked up): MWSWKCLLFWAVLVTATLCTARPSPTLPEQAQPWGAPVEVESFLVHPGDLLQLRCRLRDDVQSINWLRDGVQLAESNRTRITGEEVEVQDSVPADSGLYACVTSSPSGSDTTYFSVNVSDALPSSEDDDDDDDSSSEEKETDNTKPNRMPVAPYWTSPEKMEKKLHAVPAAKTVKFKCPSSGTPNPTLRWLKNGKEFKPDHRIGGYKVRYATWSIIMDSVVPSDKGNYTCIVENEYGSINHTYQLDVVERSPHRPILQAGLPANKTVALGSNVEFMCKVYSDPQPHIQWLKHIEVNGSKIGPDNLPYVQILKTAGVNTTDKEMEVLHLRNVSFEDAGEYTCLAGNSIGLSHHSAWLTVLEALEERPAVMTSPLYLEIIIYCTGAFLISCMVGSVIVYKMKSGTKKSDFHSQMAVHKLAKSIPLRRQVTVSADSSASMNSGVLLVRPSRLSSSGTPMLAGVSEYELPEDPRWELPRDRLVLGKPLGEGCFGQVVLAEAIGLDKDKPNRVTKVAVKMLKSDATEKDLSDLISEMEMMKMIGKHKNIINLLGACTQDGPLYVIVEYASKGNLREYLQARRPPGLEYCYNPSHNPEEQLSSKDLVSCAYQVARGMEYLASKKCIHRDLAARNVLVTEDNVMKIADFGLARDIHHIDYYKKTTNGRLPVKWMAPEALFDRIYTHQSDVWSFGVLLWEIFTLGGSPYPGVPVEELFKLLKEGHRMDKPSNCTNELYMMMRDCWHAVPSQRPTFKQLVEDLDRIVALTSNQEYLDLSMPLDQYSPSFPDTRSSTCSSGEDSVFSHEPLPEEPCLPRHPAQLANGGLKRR

SH2 binding enrichment (c-Src SH2)	SH2 binding enrichment (Grb2 SH2)	SH2 binding enrichment (SHP2-C SH2)	Sequence	phosphorylation enrichment (Jak2)	phosphorylation enrichment (EPHB1)	phosphorylation enrichment (Fes)	phosphorylation enrichment (FGFR3)	phosphorylation enrichment (EPHB2)	phosphorylation enrichment (c-Abl (mouse))	phosphorylation enrichment (FGFR1)	phosphorylation enrichment (Fyn)	phosphorylation enrichment (Fer (mouse))	phosphorylation enrichment (c-Src)	phosphorylation enrichment (Hck)	phosphorylation enrichment (MERTK)	phosphorylation enrichment (AncSZ)
0.349	0.722	0.467	IEEGTYGVVFR [CDK11B_Y449_YF]	1.38	2.76	1.48	0.961	7.66	1.2	0.548	8.86	6.28	5.94	7.46	3.13	1.41
0.401	0.927	0.806	GNHISYFQSDG [CACNA1C_Y1757_V1755I_YF]	0.566	0.552	0.918	0.496	0.44	0.511	0.483	0.418	0.39	0.395	0.392	0.376	0.742
0.485	0.922	0.731	FGSLLYKYAFK [FANCD2_Y458]	0.858	0.468	1.04	0.684	0.391	0.627	0.352	0.366	0.324	0.392	0.379	0.433	0.839
0.538	0.894	0.747	TKQLTYEEQYL [PIK3C3_Y310_D314Y]	1.37	0.551	1.18	0.766	0.603	0.825	0.434	0.45	0.965	0.732	0.524	0.593	0.95
0.496	0.813	0.805	LGSWTYPKTVS [ROS1_Y144_T145P]	0.734	0.402	1.12	0.604	0.432	0.732	0.842	0.741	0.453	0.415	0.577	0.664	0.85
16.7	0.845	0.658	GPKFGYDEIDN [ACOX1_Y232]	0.765	0.44	0.874	0.527	0.688	0.531	0.42	0.406	0.344	0.453	0.359	0.381	0.993
0.391	0.461	0.636	RISRKYKKVRF [F8_Y442_G439S]	0.64	0.891	0.883	0.749	1.07	0.711	0.986	0.721	0.759	0.749	0.571	0.805	0.879
0.857	2.26	2.11	SRPTQYSSFSC [SPEM2_Y104]	0.816	0.584	0.986	0.578	0.511	0.752	0.557	0.627	0.486	0.7	0.598	0.619	0.764
1.32	1.5	1.22	WCKPLYFSCAV [MMS22L_Y28_P27L]	1.57	0.737	1.21	1.1	0.598	0.821	1.14	0.533	0.541	1.18	0.607	0.907	1.26
0.403	0.781	0.689	TKDTFYKQPMV [GBA_Y451_F456V]	0.729	0.421	0.914	0.512	0.585	1.03	0.355	0.358	0.38	0.395	0.348	0.407	0.726
0.758	0.975	0.886	NTFEKYWLFFQ [GATM_Y103_P105L_YF]	1.2	0.721	1.44	1	0.682	1	0.761	0.501	0.478	0.538	0.68	0.544	1.29
0.727	0.86	1.66	LNPLIYSLRNK [OR5R1_Y290]	1.13	2.03	2.46	1.44	1.29	2.28	1.94	6.76	1.21	6.55	8.23	1.5	1.13
2.62	0.978	1.82	DGDTRYSTFSE [TKTL1_Y318]	0.849	0.609	0.879	0.669	0.487	0.764	0.41	0.467	0.481	0.5	0.559	0.451	0.837
0.494	0.904	0.639	NLMPAYFKCIQ [CYP21A2_Y190_YF]	1.61	0.74	1.6	1.01	0.707	1.09	0.617	0.546	0.768	0.526	0.61	0.539	1.4
0.592	0.761	0.646	ETRWNYHFEVV [GCNT3_Y267_K266N]	1.23	0.971	1.65	0.893	0.496	0.904	0.563	0.449	0.568	0.433	0.439	0.398	1.38
0.597	0.576	0.523	HNLFSYPTKHE [MYO3A_Y1396_YF]	1.01	0.65	0.989	0.738	0.624	0.65	0.74	0.631	0.624	0.531	0.874	0.868	0.773
2.93	0.781	0.527	YQEPVYSVAFS [TBL1X_Y509_H504Y]	0.989	18.9	4.74	5.72	26.2	29.6	6.72	12.4	17.5	8.72	11.1	12.7	5.95

SH2 binding enrichment (c-Src SH2)	SH2 binding enrichment (Grb2 SH2)	SH2 binding enrichment (SHP2-C SH2)	Sequence	phosphorylation enrichment (Jak2)	phosphorylation enrichment (EPHB1)	phosphorylation enrichment (Fes)	phosphorylation enrichment (FGFR3)	phosphorylation enrichment (EPHB2)	phosphorylation enrichment (c-Abl (mouse))	phosphorylation enrichment (FGFR1)	phosphorylation enrichment (Fyn)	phosphorylation enrichment (Fer (mouse))	phosphorylation enrichment (c-Src)	phosphorylation enrichment (Hck)	phosphorylation enrichment (MERTK)	phosphorylation enrichment (AncSZ)
0.584	0.983	0.724	FEEDSYSHVMA [FDPS_Y388_I391V_YF]	1.14	0.696	1.3	0.901	0.482	0.731	0.934	0.511	1.42	0.779	0.646	0.631	1.57
0.785	0.996	1.18	AIMSFYAALIN [RYR1_Y2426_D2431N]	1.06	1.14	1.3	0.772	0.991	1	0.575	0.508	0.672	0.497	0.764	1.09	1.13
1	0.985	1.45	VHYLVYHHHHH [CACNA1H_Y519_H516Y]	1.49	0.687	2.17	1.07	0.666	1.4	0.7	0.537	0.678	0.587	0.632	0.773	1.17
0.558	0.924	0.564	QNTADYFDLFG [PTPN11_Y62_G60A_YF]	6.89	15.8	1.53	16.9	13.8	1.13	17.9	1.32	0.951	0.693	0.722	0.691	5.82
0.709	0.836	0.806	KKCTRYIDCAL [ASPA_Y64_D68A]	0.595	0.374	0.755	0.568	0.394	0.55	0.394	0.336	0.418	0.371	0.356	0.338	0.684
1.02	0.993	1.04	LASLIYNFILF [AQP6_Y231_V234I]	2.98	2.51	3.72	4.49	1.28	5.49	4.45	13.3	19	12.7	11.5	14.7	2.67
0.575	0.909	0.568	FPKARYRWLVL [APTX_Y214_H215R_YF]	0.717	0.448	0.72	0.534	0.371	0.534	0.533	0.386	0.352	0.436	0.407	0.494	0.715
0.752	0.893	1.24	TFGQVYKGRHV [TNIK_Y40_YF]	0.598	0.401	0.545	0.368	0.367	0.555	0.347	0.39	0.33	0.437	0.406	0.34	0.524
0.736	0.574	0.801	TENAGYYFRIS	1.71	0.588	1.75	0.816	0.576	0.763	0.575	0.477	0.453	0.41	0.475	0.433	1.44
0.604	0.973	0.662	HELFVYKSDEN [DOCK3_Y548_C550S_YF]	2.04	0.706	2	1.13	0.84	1.11	0.94	0.734	0.927	0.616	0.66	0.505	1.87
0.547	0.689	0.573	SSNTEYLSASD [INSR_Y999_P997T]	0.82	0.393	0.746	0.615	0.573	0.556	0.518	0.52	0.48	0.474	0.501	0.435	0.884
0.438	0.844	0.617	SPRDTYSDRIG [CTPS1_Y567_S571I]	0.374	0.516	0.605	0.494	0.5	0.411	0.379	0.453	0.358	0.406	0.471	0.416	0.445
0.423	1.04	0.564	HRGCLYLAIEY [TEK_Y899_Y897C]	1.88	1.01	2.3	1.31	1.17	1.49	0.827	0.695	0.868	0.936	1.05	0.691	1.86
0.514	0.982	0.687	TFEPNYGTVKR [RAPGEF6_Y1447_Q1452R_YF]	0.497	0.55	0.586	0.45	1.45	0.691	0.448	3.76	0.701	2.66	2.72	0.385	0.707
0.459	1.02	0.603	NNIDYYKKTTN [FGFR2_Y657]	0.524	0.543	0.703	0.495	0.527	0.517	0.456	0.633	0.6	0.492	0.764	0.437	0.616
0.605	1.02	1.09	FLGRNYLETLM [DUS3L_Y610_D609N_YF]	0.63	0.515	0.701	0.567	0.412	0.522	0.448	0.454	0.433	0.292	0.33	0.322	0.679
